± gives the uncertainty stated by the source.
Assay: amyloid nucleation score (Sup35N fusion, yeast selection) (log enrichment); library NNK3; higher = more nucleation; inactive = no reads after selection
Summary of the method: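 On medium lacking adenine and uracil, psi-negative yeast expressing peptides of 20 random codons fused to Sup35N were grown 7 days at 30°C after a 24-hour induction with 100 μM copper sulfate. Illumina sequencing of input and output plasmid inserts gave the reads, and sequences under 100 input reads were excluded. The nucleation score is the DiMSum log enrichment of output over input reads, centred on the mode score of non-aggregating sequences.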

Amyloid nucleation score, 2.38 ± 0.059:
SFNITAWMMFMNVIQGYSI

Amyloid nucleation score, 2.41 ± 0.052:
SDTSSCCYTCVYISYVDHFF

Amyloid nucleation score, 0.542 ± 0.23:
SFMRRCNVCIRLYSLAFDMT

Amyloid nucleation score, 1.58 ± 0.11:
SHISWSQYRM

Amyloid nucleation score, -0.33 ± 1.1:
SFGAKCARGQDSTASVFNNG

Amyloid nucleation score, 1.14 ± 0.095:
SCIIWKSWQV

Amyloid nucleation score, 2.36 ± 0.058:
SECYKWRIFCNILNR

Amyloid nucleation score, 0.751 ± 0.23:
SCKGNVFVSSGWEFGAYFTG

Amyloid nucleation score, 1.98 ± 0.082:
SHSLSVGGFYSPDFRNYTCT

Amyloid nucleation score, 1.34 ± 0.082:
SHVLWCNMVNEFVHTLSRCG

Amyloid nucleation score, 2.91 ± 0.06:
SFFRMSFC

Amyloid nucleation score, -0.121 ± 0.66:
SFLTDMPKTKVYCAMNLPMI

Amyloid nucleation score, 1.78 ± 0.088:
SGVYLSGSSLVCNTFFGTNQ

Amyloid nucleation score, 1.16 ± 0.099:
SFNLNCDDQSRNYRADVSDS

Amyloid nucleation score, inactive:
SCFRFKTQLTIGLVEEISCA, SCGHFIGCWMGTQVRIYGKQ, SCKELLPFWARELLRFNRYC, SCKLSHFEVTMECLEYFWMM, SCMSYDLRQL, SCPIRDSGTGSYL, SCQKIALIWIRLTTDMRRRC, SCRLWHKRANRVGF, SCRVTPVLR, SCTVKSAGGFVSHRFNGSMG, SCVGNLENTIYNMVVRNCCY, SCWKTHSAKNSNGS, SCYISNFLSGCKLFMNRFL, SDLGHWHIFRYLAAIASRRK, SDLYTIGVVPTLTFINAPCI, SDSSYSYTVF, SDVIGLLFGEYNISVVLRGR, SDWIRNG, SEALCWIVTSVCRLRVFLV, SELRWYL, SERKMVSKRTLKGYFRRQVI, SESCFDMMPCLVGLKSERGQ, SESMCVIVSRIIWCGKVSNV, SESYPTRLSGRKILTRALT, SEVTSRNHTGYSRSRLLGMY, SEVVIWFAWYMSLLNPGLYA, SEYLVMLTGWVTTHLQMLWV, SFAWVS, SFDCRRSSRL, SFDILTAVVT, SFIRASKVCFDSHGCWFGLG, SFMKQIFSYARLVRISKSVG, SFNFSRHLVLF, SFNVSRWPRKWISLNCLKIS, SFPKYRSNEDFPMDIRCNSS, SFRFLV, SFSPFVTFNKWSRWGLRNIG, SFSVPVELSEP, SFTLPSIGWWYALFRSYWID, SFYPLCRQAVTDMFNKHCFP, SFYSNFRESRDLSSYTLNIS, SFYVLIVQRCELMSVVVMES, SGFHERCFINQPVFST, SGFSYRFRDSMGLDKYRCAN, SGFYNWI, SGHVHNSMKPGRSRTCTMLR, SGIIWQYNARLE, SGIMSHVGGTELLNSLHLMF, SGITIEF, SGKSLDDRFSK, SGLRSTFDNTYTLYY, SGLVCVT, SGMTGCTFRYGSRIQF, SGNTNDSSMHHQNLFFSA, SGSLHACLALWTLTTYCVST, SGSSMTS, SGSWVNDSESAEDLT, SGWLA, SHFGLDAICFIKLSTDGCTG, SHFTEFPYLGLHTYAVVE, SHKFRMITIGPSSMIGALTC, SHRKMFQGVKQVISSPETHS, SHVQWPDAFFYRTSFGQLLS, SHVSRVNEVSVISMSDINDH

Amyloid nucleation score, -0.698 ± 0.8:
SCEFYDSVLWSYFKMAMFAL

Amyloid nucleation score, -0.181 ± 0.75:
SFSRCLNSLEVRNKNSWWVG

— the supplement of paper PMC12042874
